Numbering of substitutions follows the chain as printed.
B1: JS016-38 (antibody, V domains shown)
VH: EVQLVESGGGLVQPGGSLRLSCAASGFRVRRNYMSWVRQAPGKGLEWVSVIYPGGSTFYADSVKGRFTISRDNSMNTLFLQMNSLRAEDTAVYYCARVLPMYGDYLDYWGQGTLVTVSS
VL: DIVMTQSPSSLSASVGDRVTITCRASQNIERYLNWYQQKPGKAPKLLIYAASSLQSGVPSRFSGSGSGTDFTLTISSLQPEDFATYYCQQSASSTPEYTFGQGTKLEIKR
B2: CB6-38 (轻链突变库克隆) (Fab, V domains shown)
VH: B1 VH with R28T, R30S, R31S, P53S
VL: DIVMTQSPSSLSASVGDRVTITCRASQNIERYLNWYQQKPGKAPKLLIYAASSLQSGVPSRFSGSGSGTDFTLTISSLQPEDFATYYCQQSASSTPEYTFGQGTKLEIK
notes: also called CB6-38-VL; CB6-38-LC
B3: CB6-39 (轻链突变库克隆) (Fab, V domains shown)
VH: B1 VH with R28T, R30S, R31S, P53S
VL: B2 VL with N28P, E30N, R31Q, A92K, T95L
notes: also called CB6-39-VL; CB6-39-LC
B4: CB6-42 (轻链突变库克隆) (Fab, V domains shown)
VH: B1 VH with R28T, R30S, R31S, P53S
VL: B2 VL with N28S, E30I, R31Q, S94A, T95R
notes: also called CB6-42-VL; CB6-42-LC
B5: CB6-41 (轻链突变库克隆) (Fab, V domains shown)
VH: B1 VH with R28T, R30S, R31S, P53S
VL: B2 VL with N28A, E30A, R31Y, L47E, A92P, S94A, T95F
notes: also called CB6-41-VL; CB6-41-LC
B6: CB6-40 (轻链突变库克隆) (Fab, V domains shown)
VH: B1 VH with R28T, R30S, R31S, P53S
VL: B2 VL with N28K, E30S, R31Q, A92T, S94F, T95M
notes: also called CB6-40-VL; CB6-40-LC
B7: CB6-43 (轻链突变库克隆) (Fab, V domains shown)
VH: B1 VH with R28T, R30S, R31S, P53S
VL: B2 VL with E30H, R31T, A92G, T95I
notes: also called CB6-43-VL; CB6-43-LC

Experiments:
[1] = biological target: T1, 重组SARS-CoV-2-RBD-His (SARS-CoV-2, UniProt P0DTC2 319-541); experiment: BLI Octet Red 96e, antibody on Protein A probe
T1 construct: domain: RBD

[2] = biological target: T1, 重组SARS-CoV-2-RBD-His; experiment: BLI Octet Red 96e, antibody on Protein A probe, RBD-his in solution
[3] = biological target: 生物素化的SARS-CoV-2 RBD (SARS-CoV-2, UniProt P0DTC2 319-541); experiment: ELISA screen, Fab culture supernatant on streptavidin-captured biotinylated RBD

| Binder | binding result [3] | other results |
| --- | --- | --- |
| B1 |  | fold improvement of the affinity constant over CB6 [1]: ~100 倍; fold slower dissociation rate than CB6 [1]: ~100 倍; Kd [2]: < 0.0741 nM; koff [2]: < 1e-05 s⁻¹; kon [2]: 135000 M⁻¹ s⁻¹ |
| B2 | binds |  |
| B3 | binds |  |
| B4 | binds |  |
| B5 | binds |  |
| B6 | binds |  |
| B7 | binds |  |

— CN115073593A (SHANGHAI JUNSHI BIOSCIENCES CO LTD; JUNMENG BIOSCIENCES CO …, dated 2022)
